Experimental findings from patent US7176283B1, “Protease-activated receptor 3 and uses thereof” (The Regents of the University of California, priority 1996, dated 2007) are described below.

In data set [1] the target is epitope-tagged human PAR3 (FLAG epitope fused to amino acid 17 of PAR3) (human) (UniProt O00254). Description: antibody binding to the FLAG epitope on the surface of transfected Cos 7 cells.
A further data set has as its target T1, human PAR3 (Homo sapiens, UniProt O00254).
T1 construct: The human PAR3 cDNA used for the functional studies presented below was cloned from a Lamda gt 10 intestinal cDNA library; expressed in transfected cells; host or cells: Cos 7 cells
T1 sequence (O00254 22-374): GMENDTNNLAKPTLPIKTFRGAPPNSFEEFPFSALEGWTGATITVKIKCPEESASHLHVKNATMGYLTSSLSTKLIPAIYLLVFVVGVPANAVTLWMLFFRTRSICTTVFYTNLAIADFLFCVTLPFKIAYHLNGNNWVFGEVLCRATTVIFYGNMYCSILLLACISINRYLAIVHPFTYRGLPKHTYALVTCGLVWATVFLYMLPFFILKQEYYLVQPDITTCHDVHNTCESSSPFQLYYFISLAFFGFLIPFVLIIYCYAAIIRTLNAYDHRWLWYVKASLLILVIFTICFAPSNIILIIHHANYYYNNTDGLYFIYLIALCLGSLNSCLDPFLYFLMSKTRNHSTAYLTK
Kind of data set: Phosphoinositide hydrolysis in Cos 7 cells transfected with human PAR3. The conditions noted are these: Cos 7 cells expressing human PAR3; peptide concentrations up to 100 μM. It counts as cell-based. How it is done:
PAR3 signaling in Cos 7 cells was also examined. Cos 7 cells were transfected with human PAR1 or PAR3. Cells were then metabolically labelled with ^3H-inositol and phosphoinositide hydrolysis was measured in response to the indicated concentrations of a-thrombin (FIG. 8) or γ-thrombin (FIG. 9) as described by Ishii, et al. and Nanevicz et al. (Ishii, K. et al. (1993) supra; and Nanevicz, T. et al. (1996) J. Biol. Chem. 271:702–706).
Peptides homologous to the tethered domain of PAR3 may be tested as potential agonists of PAR3 activity. Two peptides TFRGAP (SEQ NO:27) and […] (SEQ ID NO:17) were synthesized and tested for their ability to mimic the action of thrombin by causing PAR3 signaling as measured by phosphoinositide hydrolysis. Cos 7 cells expressing human PAR3 were incubated with the peptides at concentrations up to 100 μM.

The target of data set [2] is α-thrombin (Homo sapiens (Human)) (UniProt P00734). Kind of data set: cell-based or functional assay.
In data set [3] the target is epitope-tagged human PAR3 (FLAG epitope fused to amino acid 17 of PAR3) (human) (UniProt O00254). Kind of data set: cell-based or functional assay.
Data set [4] has as its system epitope-tagged human PAR3 bearing the F40A tethered ligand domain mutation.
For data set [5], the target named is human protease-activated receptor 3 (human) (UniProt O00254). Kind of data set: cell-based or functional assay.

Some results are limits rather than exact numbers.

Regarding M1 monoclonal antibody (Kodak), the share of M1 antibody binding that was transfection-dependent in data set [1] is above 95%.
For the substance “TFRGAP [synthetic peptide homologous to the tethered ligand domain of PAR3]”, the “PAR3 signaling as measured by phosphoinositide hydrolysis (agonist activity)” value in the data set with human PAR3 is reported as “no detectable signaling”.
For “TFRGAPPNS [synthetic peptide homologous to the tethered ligand domain of PAR3]”, the “PAR3 signaling as measured by phosphoinositide hydrolysis (agonist activity)” value in the data set with human PAR3 is listed as “no detectable signaling”.
For the substance hirugen (peptide), the shift of the α-thrombin dose response curve for PAR3 signaling (data not shown) in data set [2] worked out at 2 logs.
In turn, “thrombin rendered proteolytically inactive by the active site inhibitor PPACK (enzyme)” had a 45Ca release in Xenopus oocytes in data set [3] of 1 µM.
Turning to α-thrombin, in data set [4], the “PAR3 signaling and PAR3 cleavage by thrombin” value is given as “ablated PAR3 signaling but not PAR3 cleavage by thrombin”.
With γ-thrombin (enzyme), the EC50, phosphoinositide hydrolysis in Cos 7 cells in data set [5] turned out to be 0.02 µM.
